Results as given in the supplement of paper PMC7125110.
± gives the standard error. For some assays here: Variants at the floor of the assay were thinned out.

B1: glmS ribozyme (parent)
chain: AUAAAAGCGCCAGAACUACAGAAAUGUAGUUGACGAGGAGGAGGUUUAUCGAAUUUUCGGCGGAUGCCUCCAAA

Experiments:
Settings in all cases: with glucosamine-6-phosphate
glucosamine-6-phosphate [1] = variants of: B1; test: kcat; higher = faster cleavage; RNA array
Summary of the method: (§1)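 Barcoded glmS ribozyme variants on sequenced MiSeq chips were transcribed in situ by E. coli RNA polymerase and tracked through a hybridised Cy3 probe at 37 °C. Glucosamine-6-phosphate (40 μM to 10 mM) in HEPES/KCl/Mg(OAc)2 buffer was flowed in, and tiles were imaged over ~14 h. Signals were normalised to baseline and to non-cleaving reference variants; per-tile medians were fit to one- or two-exponential decays to give kobs. kcat and KM came from weighted Michaelis–Menten fits across concentrations.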

glucosamine-6-phosphate [2] = variants of: B1; test: self-cleavage kobs at 2500 uM GlcN6P; higher = faster cleavage; RNA array
Summary of the method: as §1

glucosamine-6-phosphate [3] = variants of: B1; test: self-cleavage kobs at 10000 uM GlcN6P; higher = faster cleavage; RNA array
Summary of the method: as §1

glucosamine-6-phosphate [4] = variants of: B1; test: KM; higher = weaker cofactor use; RNA array
Summary of the method: as §1

glucosamine-6-phosphate [5] = variants of: B1; test: self-cleavage kobs at 160 uM GlcN6P; higher = faster cleavage; RNA array
Summary of the method: as §1

glucosamine-6-phosphate [6] = variants of: B1; test: self-cleavage kobs at 640 uM GlcN6P; higher = faster cleavage; RNA array
Summary of the method: as §1

glucosamine-6-phosphate [7] = variants of: B1; test: self-cleavage kobs at 40 uM GlcN6P; higher = faster cleavage; RNA array
Summary of the method: as §1

Variant | kcat (glucosamine-6-phosphate [1]) [s⁻¹] | self-cleavage kobs at 2500 uM GlcN6P (glucosamine-6-phosphate [2]) [s⁻¹] | self-cleavage kobs at 10000 uM GlcN6P (glucosamine-6-phosphate [3]) [s⁻¹] | KM (glucosamine-6-phosphate [4]) [µM] | self-cleavage kobs at 160 uM GlcN6P (glucosamine-6-phosphate [5]) [s⁻¹] | self-cleavage kobs at 640 uM GlcN6P (glucosamine-6-phosphate [6]) [s⁻¹] | self-cleavage kobs at 40 uM GlcN6P (glucosamine-6-phosphate [7]) [s⁻¹]
G40U U65C | 6.53e-05 ± 8.5e-06 | 6.94e-05 ± 1.5e-05 | 5.76e-05 ± 1.1e-05 | – | – | – | –
G40U U65A | 0.000363 ± 4.2e-05 | 0.000235 ± 6.9e-05 | 0.000352 ± 7e-05 | 735 ± 170 | 6.26e-05 ± 1.5e-05 | 0.000191 ± 3.7e-05 | –
G41C U65A | 7.02e-05 ± 4.5e-06 | 4.49e-05 ± 1e-05 | 5.94e-05 ± 1.1e-05 | 1620 ± 350 | – | – | < 1e-05
G40C U65A | 0.000379 ± 3.9e-05 | 0.000199 ± 3.6e-05 | 0.000346 ± 6.3e-05 | 1830 ± 350 | 3.58e-05 ± 1.5e-05 | 0.0001 ± 1.9e-05 | –
G44C C68U | 8.31e-05 ± 1.5e-05 | 2.65e-05 ± 1.2e-05 | – | 5560 ± 1800 | < 1e-05 | – | < 1e-05
G44U U55C | 9.04e-05 ± 3.7e-06 | – | 4.92e-05 ± 1.3e-05 | 8390 ± 750 | < 1e-05 | – | –
G44U U55G | 0.000311 ± 3.4e-05 | 0.000204 ± 3.6e-05 | 0.00025 ± 4.1e-05 | 1860 ± 400 | – | 7.46e-05 ± 1.3e-05 | –
G44C A53U | 7.99e-05 ± 9.3e-07 | 5.52e-05 ± 1.4e-05 | 7.13e-05 ± 1.1e-05 | 1170 ± 57 | – | – | –
G44A U45A | 0.00079 ± 0.0001 | 0.000439 ± 0.00012 | 0.000579 ± 0.0001 | 3190 ± 750 | – | 0.000128 ± 4.2e-05 | –
G44A U45C | 0.000855 ± 6.9e-05 | 0.000496 ± 0.00011 | 0.000674 ± 6.5e-05 | 2540 ± 420 | 4.01e-05 ± 1.9e-05 | 0.000171 ± 2.7e-05 | –
G43A U45G | 0.0116 ± 0.0056 | 0.00969 ± 0.0023 | 0.00965 ± 0.0026 | – | 0.000816 ± 0.00022 | 0.00306 ± 0.00054 | 0.000563 ± 0.0001
G43U C67A | 0.00389 ± 0.00036 | 0.00219 ± 0.00043 | 0.00371 ± 0.0005 | 1310 ± 180 | 0.000392 ± 8.9e-05 | 0.00129 ± 0.00023 | 0.000122 ± 1.7e-05
G43U C67U | 5.98e-05 ± 3.8e-06 | 5.2e-05 ± 1.1e-05 | 5.46e-05 ± 7.3e-06 | 699 ± 280 | – | – | –
G40U C70A | 0.000457 ± 7.9e-05 | 0.000434 ± 7.3e-05 | 0.000372 ± 4.6e-05 | 1360 ± 460 | 3.45e-05 ± 1.4e-05 | 0.000149 ± 1.8e-05 | –
A42G A52G | 0.00211 ± 0.00034 | 0.000991 ± 8.9e-05 | 0.00187 ± 0.00037 | 2550 ± 600 | 0.000117 ± 1.7e-05 | 0.000471 ± 4.8e-05 | –
A42G A52C | 1.58e-05 ± 1.8e-06 | – | – | – | – | – | –
G44U C67G | 0.0189 ± 0.0043 | 0.023 ± 0.0048 | 0.0148 ± 0.0022 | 1120 ± 340 | 0.00226 ± 0.0003 | 0.00865 ± 0.0011 | 0.00061 ± 6.9e-05
G41U U55G | 0.000303 ± 5.3e-05 | 0.000419 ± 7.2e-05 | 0.000252 ± 3.2e-05 | – | 9.74e-05 ± 2.6e-05 | 0.000276 ± 3.9e-05 | 3.39e-05 ± 1.1e-05
G41C U47C | 3.99e-05 ± 4.8e-06 | – | 3.66e-05 ± 1.1e-05 | – | – | – | –
G41A C71G | 0.000168 ± 7.8e-06 | 0.000106 ± 2.1e-05 | 0.000154 ± 1.4e-05 | 1080 ± 150 | – | 6.55e-05 ± 9.8e-06 | –
G43U C67U C68U | 4.99e-05 ± 2e-05 | 7.28e-05 ± 2.2e-05 | 3.53e-05 ± 1.7e-05 | – | – | – | –
A42U U56G | 0.000177 ± 1.9e-05 | 7.54e-05 ± 1.2e-05 | 0.000125 ± 1.7e-05 | 3910 ± 850 | – | 2.06e-05 ± 8.1e-06 | –
G40U U56G | 0.00147 ± 0.00055 | 0.00136 ± 0.00015 | 0.000885 ± 0.00019 | – | 0.000107 ± 1.6e-05 | 0.000431 ± 6e-05 | 4.98e-05 ± 1.7e-05
G41U C71U | 0.000239 ± 3e-05 | 0.000227 ± 2.9e-05 | 0.000214 ± 1.7e-05 | 885 ± 270 | 4.38e-05 ± 8.4e-06 | 8.95e-05 ± 9.5e-06 | 1.98e-05 ± 8.9e-06
G43U U56A | 1.76e-05 ± 3.4e-06 | – | – | – | – | – | < 1e-05
G40U A42G | 0.00742 ± 0.00078 | 0.00567 ± 0.001 | 0.00603 ± 0.001 | 1330 ± 220 | 0.00072 ± 0.00018 | 0.00267 ± 0.00058 | 0.000214 ± 4e-05
U45A A52C | 6.93e-05 ± 3e-05 | 0.000121 ± 3.4e-05 | 5.55e-05 ± 1.5e-05 | – | < 1e-05 | – | –
G44A C67A | 0.0103 ± 0.0048 | 0.00541 ± 0.00076 | 0.00737 ± 0.0013 | – | 0.000422 ± 0.00011 | 0.00141 ± 0.00018 | 0.00024 ± 4e-05
G44A C71U | 9.17e-05 ± 8.5e-06 | 7.37e-05 ± 9.8e-06 | 7.95e-05 ± 9.2e-06 | 1020 ± 370 | – | 2.9e-05 ± 1e-05 | –
G40U G66U | 6.98e-05 ± 5.6e-06 | 3.54e-05 ± 7.3e-06 | 5.9e-05 ± 7.2e-06 | 2030 ± 510 | – | 2.07e-05 ± 8.1e-06 | –
